Experimental data: patent US20260226176A1 (THERANOVIR, published 2026)
Like-named read-outs stand apart in the source and are kept apart here.

T1: NRP-1 peptide (Npep)
T1 sequence (peptide): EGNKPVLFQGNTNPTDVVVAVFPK

T2: NRP-1 peptide (Npep)
T2 construct: also called synthetic peptide Npep
T2 peptide: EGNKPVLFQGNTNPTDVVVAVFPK


How the values were obtained:
[1] = biological target: T3, native human NRP-1 on the cell surface (human, UniProt O14786 22-923); assay: flow cytometry, CTC cells mix, 50 ug/ml
T3 construct: whole, on cells; endogenous protein; isoform and glycosaminoglycan state on the cells not defined; also called native NRP-1 on MDA-MB-231 cells; native form of NRP-1 protein on the CTCs cell surface

[2] = biological target: T3, native human NRP-1 on the cell surface; assay: flow cytometry, MDA-MB-231 cells, 40 ug/ml, +chondroitinase
[3] = biological target: T3, native human NRP-1 on the cell surface; assay: flow cytometry, CTC cells mix, 10 ug/ml
[4] = biological target: T3, native human NRP-1 on the cell surface; assay: flow cytometry, MDA-MB-231 cells, 10 ug/ml, -heparinase
[5] = biological target: T3, native human NRP-1 on the cell surface; assay: flow cytometry, MDA-MB-231 cells, 10 ug/ml, +heparinase
[6] = biological target: T3, native human NRP-1 on the cell surface; assay: flow cytometry, CTC cells mix, 25 ug/ml
[7] = biological target: T3, native human NRP-1 on the cell surface; assay: flow cytometry, MDA-MB-231 cells, 40 ug/ml, -chondroitinase
NRP-1 peptide (Npep) [8] = biological target: T1, NRP-1 peptide (Npep); assay: ELISA, antibody 10 µg/ml, 2 µg immobilised Npep
[9] = biological target: recombinant murine NRP-1 (5994-N1-050, Bio-Techne) (murine) (UniProt P97333); assay: ELISA, antibody 10 µg/ml, 1 µg immobilised murine NRP-1
[10] = biological target: recombinant human NRP-1 (3870-N1-025, Bio-Techne) (human) (UniProt O14786); assay: ELISA, antibody 10 µg/ml, 1 µg immobilised human NRP-1
[11] = biological target: native human NRP-1 on the cell surface (human) (UniProt O14786); assay: flow cytometry, MDA-MB-231 cells, 10 ug/ml, with against without heparinase
[12] = biological target: native human NRP-1 on the cell surface (human) (UniProt O14786); assay: flow cytometry, MDA-MB-231 cells, 40 ug/ml, +chondroitinase
[13] = biological target: native human NRP-1 on the cell surface (human) (UniProt O14786); assay: flow cytometry, MDA-MB-231 cells, 40 ug/ml, with against without chondroitinase
[14] = biological target: native human NRP-1 on the cell surface (human) (UniProt O14786); assay: flow cytometry, MDA-MB-231 cells, 10 ug/ml, -heparinase
[15] = biological target: native human NRP-1 on the cell surface (human) (UniProt O14786); assay: flow cytometry, MDA-MB-231 cells, 10 ug/ml, +heparinase
[16] = biological target: native human NRP-1 on the cell surface (human) (UniProt O14786); assay: flow cytometry, MDA-MB-231 cells, 40 ug/ml, -chondroitinase
[17] = biological target: T3, native human NRP-1 on the cell surface; assay: flow cytometry, MDA-MB-231 cells, 10 ug/ml, with against without heparinase
[18] = biological target: T3, native human NRP-1 on the cell surface; assay: flow cytometry, MDA-MB-231 cells, 10 ug/ml, +heparinase; remark: listed apart in the source
[19] = biological target: T3, native human NRP-1 on the cell surface; assay: flow cytometry, MDA-MB-231 cells, 40 ug/ml, +chondroitinase; remark: listed apart in the source
Method: (§1) Chondroitinase (C2905, Sigma) was reconstituted in a 0.01% BSA aqueous solution. The MDA-MB-231 cells were treated with chondroitinase (1 U/ml) for 2 hours at 37° C. The cells were detached using cell dissociation solution non-enzymatic (C5914, Sigma). 300,000 cells per condition were washed with 2% FBS in PBS and then incubated with different antibodies of interest or their respective isotype controls at 40 μg/ml for 30 min at 4° C. After wash, an Alexa 488-conjugated anti-human immunoglobulin antibody (20022-1, Biotium) was added at 10 μg/ml for 30 min at 4° C. After a final wash, fluorescence, size and granularity of cells were measured by the LSR Fortessa cytometer (BD Biosciences).

[20] = biological target: T3, native human NRP-1 on the cell surface; assay: flow cytometry, MDA-MB-231 cells, 40 ug/ml, -chondroitinase; remark: listed apart in the source
Method: as §1

[21] = biological target: T4, recombinant human NRP-1 (3870-N1-025, Bio-Techne) (human, UniProt O14786 22-856); assay: ELISA, antibody 10 µg/ml, 1 µg immobilised human NRP-1
T4 construct: extracellular domain; bought protein; also called human recombinant NRP-1

[22] = biological target: T5, recombinant murine NRP-1 (5994-N1-050, Bio-Techne) (murine, UniProt P97333 22-856); assay: ELISA, antibody 10 µg/ml, 1 µg immobilised murine NRP-1
T5 construct: extracellular domain; bought protein; also called mouse recombinant NRP-1

[23] = biological target: T3, native human NRP-1 on the cell surface; assay: flow cytometry, MDA-MB-231 cells, 10 ug/ml, -heparinase; remark: listed apart in the source
[24] = biological target: T3, native human NRP-1 on the cell surface; assay: flow cytometry, MDA-MB-231 cells, 40 ug/ml, with against without chondroitinase
Method: as §1

NRP-1 peptide (Npep) [25] = biological target: T2, NRP-1 peptide (Npep); assay: ELISA, antibody 10 µg/ml, 2 µg immobilised Npep

Chain of recombinant murine NRP-1 (5994-N1-050, Bio-Techne) (murine) (P97333 22-856): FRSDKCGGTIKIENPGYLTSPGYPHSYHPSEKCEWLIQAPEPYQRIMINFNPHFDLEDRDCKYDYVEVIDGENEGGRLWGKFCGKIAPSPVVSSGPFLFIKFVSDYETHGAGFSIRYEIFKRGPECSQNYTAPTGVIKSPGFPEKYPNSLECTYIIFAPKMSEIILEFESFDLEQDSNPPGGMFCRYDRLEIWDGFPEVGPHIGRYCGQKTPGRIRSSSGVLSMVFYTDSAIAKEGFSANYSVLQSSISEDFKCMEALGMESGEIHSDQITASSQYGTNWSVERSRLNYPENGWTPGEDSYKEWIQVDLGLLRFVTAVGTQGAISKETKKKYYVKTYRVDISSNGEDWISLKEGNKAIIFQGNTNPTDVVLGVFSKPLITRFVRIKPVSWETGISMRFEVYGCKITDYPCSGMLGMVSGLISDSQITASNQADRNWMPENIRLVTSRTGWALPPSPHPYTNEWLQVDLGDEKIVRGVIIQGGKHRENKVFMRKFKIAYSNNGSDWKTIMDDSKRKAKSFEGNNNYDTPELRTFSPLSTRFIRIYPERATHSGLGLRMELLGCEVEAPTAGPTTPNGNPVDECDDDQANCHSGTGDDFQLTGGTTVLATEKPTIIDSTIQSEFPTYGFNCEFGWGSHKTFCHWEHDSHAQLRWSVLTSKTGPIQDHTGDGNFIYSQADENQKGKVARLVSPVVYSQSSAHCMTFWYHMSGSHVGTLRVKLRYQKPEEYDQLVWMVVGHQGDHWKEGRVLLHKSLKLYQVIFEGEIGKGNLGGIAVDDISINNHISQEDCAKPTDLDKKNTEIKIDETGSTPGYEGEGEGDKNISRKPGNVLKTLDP
T5 sequence (P97333 22-856): as above

| Molecule | percent of bound cells [1] [%] | percentage of binding [2] [%] | percent of bound cells [3] [%] | percentage of binding [4] [%] | percentage of binding [5] [%] | percent of bound cells [6] [%] | percentage of binding [7] [%] | Absorbance (NRP-1 peptide (Npep) [8]) | Absorbance [9] | Absorbance [10] | delta (% of control) [17] [%] | percentage of binding [18] [%] | percentage of binding [19] [%] | percentage of binding [20] [%] | Absorbance [21] | Absorbance [22] | percentage of binding [23] [%] | delta (% of control) [24] [%] | Absorbance (NRP-1 peptide (Npep) [25]) | also measured |
| --- | --- | --- | --- | --- | --- | --- | --- | --- | --- | --- | --- | --- | --- | --- | --- | --- | --- | --- | --- | --- |
| hIgG1 isotype control (antibody) | – | 0.063 | – | 0.17 | 0.14 | – | 0.1 | 0.05 | 0.084 | 0.073 | – | – | – | – | – | – | – | – | – | – |
| hIgG4 isotype control (antibody) | 4.04 | – | 2.04 | 0.2 | 0.24 | 3.3 | 0.47 | 0.055 | 0.064 | 0.073 | – | – | – | – | – | – | – | – | – | – |
| variant 8 a-NRP1_LEP n° 1 (antibody, V domains shown, humanized variant of 21B10; isotype control hIgG4; also called Var8; variant no 8) VH: EVQLVESGGGLVQPGGSLRLSCAASGFTFSSYSMHWVRQAPGKGLEWVSYISSGSSTIHYADSVKGRFTISRDNAKNSLYLQMNSLRAEDTAVYYCARRHYGSSRYWYFDVWGQGTTVTVSS VL: EIVLTQSPATLSLSPGERATLSCRASQSVKSYLAWYQQKPGQAPRLLIYYASSRATGIPARFSGSGSGTDFTLTISSLEPEDFAVYYCQQYSESPYTFGQGTKLEIK | – | – | – | – | – | – | – | – | – | – | -3.42 | 9.88 | 61.5 | 75.6 | 0.59 | 0.412 | 13.3 | -14.1 | 0.475 | – |
| variant 6 a-NRP1_LEP n° 1 (antibody, V domains shown, humanized variant of 21B10; isotype control hIgG4; also called Var6; variant no 6) VH: EVQLVESGGGLVQPGGSLRLSCAASGFTFSSYSMHWVRQAPGKGLEWVSYISSGSSTIHYADSVKGRFTISRDNAKNSLYLQMNSLRAEDTAVYYCARRHYGSSRYWYFDVWGQGTTVTVSS VL: DIQMTQSPSTLSASVGDRVTITCRASQSIKSYLAWYQQKPGKAPKLLIYYASSLASGVPSRFSGSGSGTEFTLTISSLQPDDFATYYCQQYGESSYTFGQGTKLEIK | – | – | – | – | – | – | – | – | – | – | -1.6 | 11.5 | 69.1 | 85.3 | 0.799 | 0.72 | 13.1 | -16.2 | 0.684 | – |

Further lines, with some results ahead:

| percent of bound cells [1] [%] | percentage of binding [2] [%] | percent of bound cells [3] [%] | percentage of binding [4] [%] | percentage of binding [5] [%] | percent of bound cells [6] [%] | percentage of binding [7] [%] | Absorbance (NRP-1 peptide (Npep) [8]) | Absorbance [9] | Absorbance [10] | delta (% of control) [17] [%] | percentage of binding [18] [%] | percentage of binding [19] [%] | percentage of binding [20] [%] | Absorbance [21] | Absorbance [22] | percentage of binding [23] [%] | delta (% of control) [24] [%] | Absorbance (NRP-1 peptide (Npep) [25]) | Molecule | also measured |
| --- | --- | --- | --- | --- | --- | --- | --- | --- | --- | --- | --- | --- | --- | --- | --- | --- | --- | --- | --- | --- |
| 14.4 | 0.66 | 3.65 | 0.086 | 0.28 | 6.66 | 0.45 | – | – | – | – | – | – | – | – | – | – | – | – | mIgG2b isotype control (antibody) | – |
| – | – | – | – | – | – | – | 0.063 | 0.431 | 0.407 | – | – | – | – | – | – | – | – | – | a-NRP1_SEM (antibody, from another filing, V domains shown) VH: EVQLVESGGGLVQPGGSLRLSCAASGFSFSSEPISWVRQAPGKGLEWVSSITGKNGYTYYADSVKGRFTISADTSKNTAYLQMNSLRAEDTAVYYCARWGKKVYGMDVWGQGTLVTVSS VL: DIQMTQSPSSLSASVGDRVTITCRASQSISSYLAWYQQKPGKAPKLLIYGASSRASGVPSRFSGSGSGTDFTLTISSLQPEDFATYYCQQYMSVPITFGQGTKVEIKR | delta (% of control) [11]: 1.1%; percentage of binding [12]: 99.9%; delta (% of control) [13]: -0.1%; percentage of binding [14]: 96.6%; percentage of binding [15]: 97.7%; percentage of binding [16]: 100% |
